# Assay results from PMC4546648.
# Target: GST-K15P cytoplasmic domain (aa 347-489) (Kaposi's sarcoma herpesvirus (KSHV, HHV-8)) (UniProt Q9QR69)
# Assay: SPR; Biacore X100; GST-K15P cytoplasmic tail amine-coupled to a CM4 chip (207 RU); His-tagged PLCγ2 cSH2 wt or SB injected at 1.5, 3, 6, 12, 24 nM, single cycle kinetics, 30 μl/min, HBS-EP buffer pH 7.4
substance,measurement,value
"His-tagged PLCγ2 cSH2 domain wt, purified from E. coli (from UniProt P16885 1-1265) (domain or fragment)",Kd,5.8 nM
"His-tagged PLCγ2 cSH2 S677V/R695L superbinder, purified from E. coli (domain or fragment)",Kd,3.8 nM
